B1: LbCpf1 HPRT 38115-AS-23 crRNA ; HPRT 38115-AS target (protospacer as DNA, 23 nt) (ssRNA ; dsDNA)
RNA: UAAUUUCUACUAAGUGUAGAUACACACCCAAGGAAAGACUAUGA
DNA 1: ACACACCCAAGGAAAGACTATGA
DNA 2: TCATAGTCTTTCCTTGGGTGTGT
modifications: Alt-R end modifications on 5' and 3' ends
B2: LbCpf1 HPRT 38330-AS-23 crRNA ; HPRT 38330-AS target (protospacer as DNA, 23 nt) (ssRNA ; dsDNA)
RNA: UAAUUUCUACUAAGUGUAGAUGGUUAAAGAUGGUUAAAUGAUUG
DNA 1: GGTTAAAGATGGTTAAATGATTG
DNA 2: CAATCATTTAACCATCTTTAACC
modifications: Alt-R end modifications on 5' and 3' ends

Columns and labels:
[1] = target: T1, LbCas12a N527R/D559P/E795L (Lachnospiraceae bacterium ND2006); experiment: cell_activity; 5 uM RNP, HEK293, 48 h, T7EI; WT 80.35; PAM not stated
[2] = target: T2, LbCas12a N527R/E795L (Lachnospiraceae bacterium ND2006); experiment: as above
[3] = target: T3, LbCas12a N527R (Lachnospiraceae bacterium ND2006); experiment: as above
[4] = target: T4, LbCas12a D559P (Lachnospiraceae bacterium ND2006); experiment: as above
[5] = target: T5, LbCas12a E795L (Lachnospiraceae bacterium ND2006); experiment: as above
[6] = target: LbCas12a N527R/D559P (Lachnospiraceae bacterium ND2006); experiment: as above
[7] = target: T6, LbCas12a D559P/E795L (Lachnospiraceae bacterium ND2006); experiment: as above
[8] = target: T1, LbCas12a N527R/D559P/E795L; experiment: cell_activity; 5 uM RNP, HEK293, 48 h, T7EI; WT 78.5; PAM not stated
[9] = target: T2, LbCas12a N527R/E795L; experiment: as above
[10] = target: T3, LbCas12a N527R; experiment: as above
[11] = target: T4, LbCas12a D559P; experiment: as above
[12] = target: T5, LbCas12a E795L; experiment: as above
[13] = target: T6, LbCas12a D559P/E795L; experiment: as above

Binder	activity [1] [% cleavage]	activity [2] [% cleavage]	activity [3] [% cleavage]	activity [4] [% cleavage]	activity [5] [% cleavage]	activity [6] [% cleavage]	activity [7] [% cleavage]	activity [8] [% cleavage]	activity [9] [% cleavage]	activity [10] [% cleavage]	activity [11] [% cleavage]	activity [12] [% cleavage]	activity [13] [% cleavage]
B1	60.3	39.3	35	78	78.2	9.39	79.3						
B2								28.8	21.2	9.6	58.4	79.5	75.8
